In patent US8691772B2, “HSP60, HSP60 peptides and T cell vaccines for immunomodulation” (Yeda Research and Development Co. Ltd., priority 2005, dated 2014):

Experiments:
SOCS3 = SOCS3 expression in mouse lymphocytes / T cells (immunoblot); format: cell-based; settings: for SOCS3 expression: 1 ng/ml, 1 hr
From the text: Mice and mouse T cells. Female C57BL/6J were obtained from Harlan Olac (Bicester, U.K.). TLR2-knockout mice on the C57BL/6J background were kindly provided by Dr. S. Akira (Osaka University, Osaka, Japan). CD3^+ T cells were isolated by negative selection with anti-mouse antibody cocktail (Pan T cell kit; Miltenyi Biotec; CITY Germany). The labeled cells were then passed through separation columns (MidiMACS columns, Miltenyi Biotec). The purified cells (>97% T cells) were untreated or treated with HSP60 as described. Similarly, T cells were purified from the lymph nodes of BALB/c mice (females, 1.5 months of age).
Western blotting of T-cell lysates. T cells were incubated (24 hr, 37° C.) in starvation medium (RPMI medium without serum). Aliquots (5×10^6/sample) of the starved cells were preincubated (for various intervals) with different concentrations of HSP60 prior to exposure to SDF-1α (100 ng/ml, 10 min, 37° C., tissue culture conditions). These reactions were terminated by freezing the plates (−70° C., 10 min). The plates were thawed, and the cells solubilized by incubating (60 min, 4° C.) in lysis buffer [EDTA (0.5 mM), NaCL (150 mM), NaF (10 nM), Tris pH 7.5 (25 mM), Triton X-100 (1%), PMSF (200 pg/ml), and phosphatase inhibitor cocktail (1%)]. Lysates were cleared by centrifugation (30 min, 14×10^3 rpm, 4° C.), and the resulting supernatants analyzed for protein content. Sample buffer was added, the samples were boiled, and equal amounts of proteins were separated by 10% SDS-PAGE and transferred to nitrocellulose membranes. […] Phosphorylation levels of the 3-5 independent experiments were estimated by densitometry, and an average percentage of phosphorylation±SD was calculated as OD of pERK/tERK, or pPyk2/tPyk2, or pAKT/tAKT, pMLC/tMLC, or pSTAT3/tSTAT3×100%.

DTH = DTH assay (adoptive transfer, oxazolone); format: in vivo, BALB/c mice; settings: oxazolone-reactive lymph node cells exposed in vitro to 1 μg/ml for 1 hr; ear swelling 24 hr
Method: DTH assays. BALB/c mice (females; 1.5 months of age) were sensitized by painting of their shaved abdominal walls with Oxazolone (2%) emulsified in 100 μl of acetone/olive oil (Sigma-Aldrich). On day 5, mice were sacrificed, their draining (inguinal, mesenteric, and cervical) lymph nodes were collected, and a single cell suspension was prepared. The cells were treated with HSP60 (1 μg/ml; 1 hr; tissue culture conditions), washed, and injected (5×10^7 cells per mouse) i.v. into the tails of naive mice (at least 6 mice per group). Painting of the earlobes with oxazolone (10 μl of 0.5% in acetone/olive oil), which generates a DTH response, was performed immediately after cell inoculation. The area of the ears that was painted was measured before challenge and 24 hr later with a micrometer. Changes in earlobe thickness are indicative of DTH reactivity. All animal studies were performed in compliance with and were approved by laws and animal welfare guidelines of The Weizmann Institute of Science (IACUC).

T-bet and GATA-3 = T-bet and GATA-3 expression in human T cells; format: cell-based
Method: Western blot analysis of T-cell nuclear extracts. Purified T cells (5×10^6) were preincubated with different concentrations of HSP60 for the indicated periods of time (37° C. in a 7% CO2, humidified atmosphere). […] T cells were lysed in 10 mM HEPES, 1.5 mM MgCl2, 1 mM dithiothreitol (DTT), 1 mM PMSF, 0.5% Nonidet P-40. The lysates were incubated on ice for 10 min and centrifuged at 2000 rpm for 10 min at 4° C. The supernatants (cytoplasmic extracts) were transferred and the pellet (nuclei) was suspended in buffer containing 30 mM HEPES, 450 mM NaCl, 25% Glycerol, 0.5 mM EDTA, 6 mM DTT, 12 mM MgCl2 1 mM PMSF, 10 μg/ml leupeptin, 10 μg/ml pepstatin, 1% phosphatase inhibitor cocktail, and the suspension was incubated on ice for 30 min. The lysates were cleared by centrifugation (30 min, 14×10^3 rpm, 4° C.), and the resulting supernatants analyzed for protein content. For NFATp analysis nuclear extracts were prepared with a NE-PER Nuclear and Cytoplasmic Extraction reagent (Pierce, Rockford, Ill.) according to the manufacturer's protocol. Sample buffer was then added and, after boiling, the samples, containing equal amounts of proteins, were separated on 10% SDS-PAGE gel and transferred to nitrocellulose membranes. The membranes were blocked with TBST buffer containing low-fat milk (5%), Tris pH 7.5 (20 mM), NaCl (135 mM) and Tween 20 (0.1%), and probed with the following mAb in the same buffer: anti-NF-κb (diluted 1:1000), anti-total (t) ERK (diluted 1:20,000), anti-NFATp (diluted 1:500), anti T-bet (diluted 1:1000), anti-GATA-3 (diluted 1:1000), anti-Lamin B (diluted 1:1000). Immunoreactive protein bands were visualized using labeled secondary antibodies and the enhanced ECL system.

[1] = test system: human CD3^+, CD4^+, and CD8^+ T cells; experiment: Cytokine secretion of anti-CD3-activated CD3+, CD4+, CD8+ and CD25-separated T cells; format: cell-based; settings: for secretion of IL-10 and TGF-β: anti-CD3
From the text: Purified T-cell populations. […] In a second round of purification, CD4^+ T cells were separated to CD25^− and CD25^+ populations with magnetically coupled mAb against human CD25 (Miltenyi Biotec; Bergisch Gladbach, Germany).

human T cells = experiment: Cytokine secretion of anti-CD3-activated purified human T cells
Method: Human T cells. T cells were purified from the peripheral blood of healthy human donors (Blood Bank; Tel-Hashomer, Israel). The whole blood was incubated (20 min, 22° C.) with RosetteSep™ human T-cell enrichment cocktail (StemCell Technologies, Vencouver, BC, Canada). The remaining unsedimented cells were then loaded onto Lymphocyte Separation Medium (ICN Biomedicals; Belgium), isolated by density centrifugation, and washed with PBS. The purified cells (>95% CD3^+ T cells) so obtained were cultured in RPMI containing antibiotics and 10% heat-inactivated FCS.
Cytokine secretion. T cells (2×10^6 cells per ml) were activated (1 hr, 37° C.) with the indicated concentrations of HSP60 in 24-well plates in RPMI containing 10% heat-inactivated FCS. The cells were then washed and re-plated at the same concentration on anti-CD3 mAb pre-coated 24-well plates (0.5 μg/ml; non tissue culture grade plates) in serum free medium containing 0.1% BSA at 4° C. for 24 hr. The supernatants were collected, and the cytokine content (TNF-α, IFN-γ, and IL-10) was determined by ELISA, using the appropriate mAb, according to the manufacturer's instructions.

[2] = 1 ng/ml and 1 μg/ml, no anti-CD3
[3] = CD3+ and CD4+ T cells pre-treated 2 hours, washed, anti-CD3 24 hr

B1: HSP60: recombinant human heat shock protein 60 (StressGen Biotechnologies) (protein)
chain: AKDVKFGADARALMLQGVDLLADAVAVTMGPKGRTVIIEQSWGSPKVTKDGVTVAKSIDLKDKYKNIGAKLVQDVANNTNEEAGDGTTTATVLARSIAKEGFEKISKGANPVEIRRGVMLAVDAVIAELKKQSKPVTTPEEIAQVATISANGDKEIGNIISDAMKKVGRKGVITVKDGKTLNDELEIIEGMKFDRGYISPYFINTSKGQKCEFQDAYVLLSEKKISSIQSIVPALEIANAHRKPLVIIAEDVDGEALSTLVLNRLKVGLQVVAVKAPGFGDNRKNQLKDMAIATGGAVFGEEGLTLNLEDVQPHDLGKVGEVIVTKDDAMLLKGKGDKAQIEKRIQEIIEQLDVTTSEYEKEKLNERLAKLSDGVAVLKVGGTSDVEVNEKKDRVTDALNATRAAVEEGIVLGGGCALLRCIPALDSLTPANEDQKIGIEIIKRTLKIPAMTIAKNAGVEGSLIVEKIMQSSSEVGYDAMAGDFVNMVEKGIIDPTKVVRTALLDAAGVASLLTTAEVVVTEIPKEEKDPGMGAMGGMGGGMGGGMF
SOCS3; BALB/c lymph node cells
  expression of SOCS3: induced the expression of SOCS3 in BALB/c lymph node cells
SOCS3; T cells from TLR2-knockout mice
  SOCS3 expression: SOCS3 expression remained at the low levels of untreated cells
SOCS3; wild type C57BL/6J-derived T cells
  SOCS3 expression: induced SOCS3 expression at levels similar to those induced by HSP60 in human T cells
DTH
  inhibition of ability to adoptively transfer DTH: 50%
T-bet and GATA-3; 1 ng/ml and 1 μg/ml, 1 hr pre-treatment
  T-bet expression induced by anti-CD3: significantly (P<0.05) inhibited the T-bet expression induced by the anti-CD3
T-bet and GATA-3; [2]
  protein level of GATA-3: significantly (P<0.01) up-regulated the protein level of GATA-3
  protein level of T-bet: but not of T-bet
T-bet and GATA-3; 1 hr pre-incubation
  GATA-3 expression with anti-CD3: significantly up-regulated the expression level of GATA-3
[1]
  effect on cytokine secretion at doses in the order of 10 ng/ml: did not affect cytokine secretion
[1]; 1 ng/ml, 2 hours, anti-CD3 24 hours
  inhibition of IFN-γ and TNF-α secretion in purified CD4+CD25- T cells: completely prevented the inhibition of IFN-γ and TNF-α secretion by HSP60 treatment
[1]; [3]
  enhancement of IL-10 secretion: 2-3 fold
  inhibition of anti-CD3-induced IFN-γ secretion: about 50%
  inhibition of anti-CD3-induced TNF-α secretion: about 50%
[1]; CD4+CD25- T cells, 1 ng/ml
  secretion of IL-10 and TGF-β: but not of CD4^+CD25^− T cells
[1]; HSP60 alone, 0.01-1000 ng/ml
  cytokine secretion without anti-CD3: did not induce cytokine secretion by the T cells
[1]; P<0.05
  higher concentrations at which cytokine secretion was again affected significantly: 0.1-1 μpg/ml
  low concentrations with significant effects on cytokine secretion: 0.1 to 1.0 ng/mL
[1]; anti-CD3-activated
  cytokine secretion of CD8+ T cells: unresponsive to HSP60 at all concentrations tested
[1]; un-separated CD4+ or CD4+CD25+ T cells, 1 ng/ml
  secretion of IL-10 and TGF-β: significantly up-regulated the secretion of IL-10 and TGF-β
Human T cells
  effect on cytokine secretion at doses in the order of 10 ng/ml: did not appear to affect cytokine secretion
  secretion of IL-4 and IL-13: increases the secretion
Human T cells; HSP60 alone
  cytokine secretion without anti-CD3: did not induce cytokine secretion from the T cells
Human T cells; P<0.05
  higher concentrations at which cytokine secretion was again affected: 0.1 to 1 µg/mL
  low concentrations with significant effects on cytokine secretion: 0.1 to 1.0 ng/mL
